From PMC2912355 (Molecular Biology of the Cell, 2010)

T1: IFT72 (C. reinhardtii (endogenous in flagella), UniProt Q6RCE1 1-641)
T1 sequence (looked up): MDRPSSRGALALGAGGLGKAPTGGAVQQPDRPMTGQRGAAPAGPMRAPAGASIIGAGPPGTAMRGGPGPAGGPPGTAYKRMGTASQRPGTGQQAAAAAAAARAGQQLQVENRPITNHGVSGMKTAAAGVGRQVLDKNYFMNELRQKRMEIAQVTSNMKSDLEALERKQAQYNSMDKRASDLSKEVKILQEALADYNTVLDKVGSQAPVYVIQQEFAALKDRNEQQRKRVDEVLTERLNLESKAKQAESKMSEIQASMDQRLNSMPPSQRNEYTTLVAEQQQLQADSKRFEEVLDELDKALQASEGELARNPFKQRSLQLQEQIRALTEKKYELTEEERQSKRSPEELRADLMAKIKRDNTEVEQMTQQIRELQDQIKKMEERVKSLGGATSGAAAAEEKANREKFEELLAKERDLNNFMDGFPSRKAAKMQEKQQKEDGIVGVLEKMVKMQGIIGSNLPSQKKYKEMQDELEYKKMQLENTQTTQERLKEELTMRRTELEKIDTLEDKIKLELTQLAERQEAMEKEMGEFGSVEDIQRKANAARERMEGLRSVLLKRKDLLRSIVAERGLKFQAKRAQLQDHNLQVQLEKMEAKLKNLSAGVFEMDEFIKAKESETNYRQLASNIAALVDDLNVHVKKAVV

T2: IFT57 (C. reinhardtii (endogenous in flagella), UniProt Q2XQY7 1-469)
T2 sequence (looked up): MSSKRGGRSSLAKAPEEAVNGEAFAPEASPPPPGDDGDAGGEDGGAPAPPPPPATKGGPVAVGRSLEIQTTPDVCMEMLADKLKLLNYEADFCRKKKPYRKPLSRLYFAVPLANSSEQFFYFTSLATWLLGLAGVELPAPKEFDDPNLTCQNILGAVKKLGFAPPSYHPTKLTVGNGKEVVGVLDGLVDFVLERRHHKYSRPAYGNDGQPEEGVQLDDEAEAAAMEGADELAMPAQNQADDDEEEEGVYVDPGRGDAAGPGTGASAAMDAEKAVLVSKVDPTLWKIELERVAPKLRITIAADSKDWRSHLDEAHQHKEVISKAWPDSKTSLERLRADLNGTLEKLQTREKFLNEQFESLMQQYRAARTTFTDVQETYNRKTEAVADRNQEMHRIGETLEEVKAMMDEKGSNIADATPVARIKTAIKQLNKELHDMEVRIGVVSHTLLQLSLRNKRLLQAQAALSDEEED


Columns and labels:
[1] = molecular target: Strep-II-Tag IFT46 (C. reinhardtii) (UniProt A2T2X4); assay: pull-down
Chain of Strep-II-Tag IFT46 (C. reinhardtii) (A2T2X4 whole entry): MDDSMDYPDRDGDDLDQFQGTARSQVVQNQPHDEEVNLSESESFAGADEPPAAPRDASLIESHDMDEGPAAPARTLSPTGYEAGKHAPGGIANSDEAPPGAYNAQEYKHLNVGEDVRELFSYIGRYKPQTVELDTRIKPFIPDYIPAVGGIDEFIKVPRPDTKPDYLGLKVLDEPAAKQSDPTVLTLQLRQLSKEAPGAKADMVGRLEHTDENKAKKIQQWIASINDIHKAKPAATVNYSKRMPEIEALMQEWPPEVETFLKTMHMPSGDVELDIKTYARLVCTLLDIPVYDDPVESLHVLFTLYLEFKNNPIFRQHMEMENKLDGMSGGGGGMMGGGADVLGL

IFT72 = molecular target: T1, IFT72; assay: co-sedimentation
IFT57 = molecular target: T2, IFT57; assay: co-sedimentation

Molecule | stoichiometry N [1] | stoichiometry N (IFT72) | stoichiometry N (IFT57)
MBP-IFT70/CrDYF-1 (natural protein) | 1 |  | 
IFT70/CrDYF-1 (natural protein, C. reinhardtii (endogenous in flagella), UniProt A8ITN7 1-647, looked up) MAFFQQPARPIAEGQYTQTIYTLIKEQKFAEAIQHLQYQLQNVPESRAALSLLGYCYYYTGQYDMASQMYEQLVTLYPSNEDYKLYYAQSLYKGGMYPEASKAVVKVEGHQKAVTTLLVACSYEQDDLTGCRRQLDKCAPEDPDTMVNTGCIMFKEGKFEAARQKFNDAVQALGYQPELLYNIALCYYKTKQFGPALKHLAEIIEKAVREHPELSVGSNTDGMEVRSVGNSQTLKETALIEAFNLKAAIEYTMKNVEAAKEALTDMPPRAEEELDPVTLHNSALINMDSDPTGGFKKLNFLLQSPPFPPETFANLLLLYCKPSHGFYDLAADVLAENPQYAGKLLSPDLYDYLQAAIGRYKSPEEAFRRFDELATRHVEQLRRLTKQIQDARIARDNDAIKRAINEYDEALEAYIPGLMAMASIYWDMELYSNVEKIFRQSAEFCSEHEVWKLNVAHTFFMQDNHYKEAIRYYEPVVKKNADNLLGVTAIVLANLCVSYIMTSQNEEAEELMRKVEKEEERSSMQDPDKPCFHLCIINLVIGTLYCAKGNYEFGVSRIIKSLEPYDKKLETDTWYYAKRCFLALIENLAKHMIVLKDSSFTEIMAFLNEAEKHGKDIRVVFNEGKHQSRTIASEARMLKKMFLKLRD |  | ~1 | ~1
